Kd and EC50 data for 17 molecules are collected here from US20250186597A1, “TARGETED IMMUNE ACTIVATION WITH IL-18 IMMUNOCYTOKINES” (BRIGHT PEAK THERAPEUTICS AG, priority 2023, published 2025).

Broadly, the Kd is a measure of binding affinity in units of concentration. A word on the EC50: it is the midpoint of the concentration-response curve.

To fix the notation:
T1: human IL-18BP (Homo sapiens, UniProt O95998)
T1 construct: His
T1 sequence (O95998 31-194): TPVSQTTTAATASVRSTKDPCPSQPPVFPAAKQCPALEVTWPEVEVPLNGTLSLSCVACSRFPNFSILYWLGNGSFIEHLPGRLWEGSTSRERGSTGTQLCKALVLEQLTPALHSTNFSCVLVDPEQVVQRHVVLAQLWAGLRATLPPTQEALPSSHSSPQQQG

B1: SEQ ID NO: 72: IL-18 polypeptide: N-terminal 4xG, E6K, V11I, C38A, K53A, T63A, C76A, C127A (protein)
chain: GGGGYFGKLKSKLSIIRNLNDQVLFIDQGNRPLFEDMTDSDARDNAPRTIFIISMYADSQPRGMAVAISVKCEKISTLSAENKIISFKEMNPPDNIKDTKSDIIFFQRSVPGHDNKMQFESSSYEGYFLAAEKERDLFKLILKKEDELGDRSIMFTVQNED
modifications: N-terminal 4xG
notes: IL-18 polypeptide: N-terminal 4xG, E6K, V11I, C38A, K53A, T63A, C76A, C127A
B2: 44 (protein)
chain: YAGKLKSKLSVIRNLNDQVLFIDQGNRPLFEDMTDSDCRDNAPRTIFIISMYADAQPRGMAVTISVKCEKISTLSCENKIISFKEMNPPDNIKDTKSDIIFFQRSVPGHDNKMQFESSSYEGYFLACEKERDLFKLILKKEDELGDRSIMFTVQNED
B3: 45 (protein)
chain: B2 chain with A2F, D54A
B4: SEQ ID NO: 69: IL-18 polypeptide: E6K, V11I, C38A, M51G, K53A, T63A, C76A, C127A (protein)
chain: B2 chain with A2F, V11I, C38A, M51G, A55S, T63A, C76A, C127A
B5: C142: IL-18 polypeptide: Y1M, E6K, V11I, C38A, K53A, T63A, C76A, C127A (protein)
chain: B2 chain with Y1M, A2F, V11I, C38A, A55S, T63A, C76A, C127A
B6: C178: IL-18 polypeptide: E6K, V11I, C38A, K53A, T63A, C76A, Q103R, C127A (protein)
chain: B2 chain with A2F, V11I, C38A, A55S, T63A, C76A, Q103R, C127A
B7: 49 (protein)
chain: B2 chain with A2F, C38S, C68S, K70C, C76S, C127S
B8: C181: IL-18 polypeptide: E6K, V11I, C38A, K53A, T63A, C76A, C127A, V153E (protein)
chain: B2 chain with A2F, V11I, C38A, A55S, T63A, C76A, C127A, V153E
B9: C174: IL-18 polypeptide: K8L, E6K, V11I, C38A, K53A, T63A, C76A, C127A (protein)
chain: B2 chain with A2F, K8L, V11I, C38A, A55S, T63A, C76A, C127A
B10: C184: IL-18 polypeptide: E6R, V11I, C38A, K53A, T63A, C76A, C127A (protein)
chain: B2 chain with A2F, K6R, V11I, C38A, A55S, T63A, C76A, C127A
B11: 56 (protein)
chain: B2 chain with A2F, C38S, A55S, C76S, C127S
B12: C179: IL-18 polypeptide: E6K, K8E, V11I, C38A, K53A, T63A, C76A, Q103R, C127A (protein)
chain: B2 chain with A2F, K8E, V11I, C38A, A55S, T63A, C76A, Q103R, C127A
B13: C177: IL-18 polypeptide: E6K, V11I, C38A, I49R, K53A, T63A, C76A, C127A (protein)
chain: B2 chain with A2F, V11I, C38A, I49R, A55S, T63A, C76A, C127A
B14: C176: IL-18 polypeptide: E6K, V11I, C38A, I49M, K53A, T63A, C76A, C127A (protein)
chain: B2 chain with A2F, V11I, C38A, I49M, A55S, T63A, C76A, C127A
B15: C182: IL-18 polypeptide: E6K, V11I, C38A, K53A, T63A, C76A, C127A, V153Y (protein)
chain: B2 chain with A2F, V11I, C38A, A55S, T63A, C76A, C127A, V153Y
B16: SEQ ID NO: 71: IL-18 polypeptide: N-terminal G, E6K, V11I, C38A, K53A, T63A, C76A, C127A (protein)
chain: GYFGKLKSKLSIIRNLNDQVLFIDQGNRPLFEDMTDSDARDNAPRTIFIISMYADSQPRGMAVAISVKCEKISTLSAENKIISFKEMNPPDNIKDTKSDIIFFQRSVPGHDNKMQFESSSYEGYFLAAEKERDLFKLILKKEDELGDRSIMFTVQNED
modifications: N-terminal G
notes: IL-18 polypeptide: N-terminal G, E6K, V11I, C38A, K53A, T63A, C76A, C127A
B17: SEQ ID NO: 70: IL-18 polypeptide: N-terminal G, E6K, V11I, C38A, M51G, K53A, T63A, C76A, C127A (protein)
chain: B16 chain with M52G
modifications: N-terminal G
notes: IL-18 polypeptide: N-terminal G, E6K, V11I, C38A, M51G, K53A, T63A, C76A, C127A

Substitutions are numbered along the chain they refer to. In names and notes the source's numbering stands. Bounds are passed on as bounds.

One assay addresses T1, human IL-18BP. Put plainly: IL-18BP binding alphaLISA assay (Example 4, used in Example 22B). The settings on record: IL-18BP AlphaLISA. The procedure:
A human IL-18BP AlphaLISA Assay Kit is used to determine the binding affinity of each immunocytokine and IL-18 variant for IL-18BP, which detected the presence of free form IL-18BP.
Sixteen three-fold serial dilutions of IL-18 analytes are prepared in aMEM medium supplemented with 20% FCS, Glutamax, and 25 µM β-mercaptoethanol in the presence of 5 ng/mL of His-tagged human IL-18BP. Final IL-18 analytes concentration range from 2778 nM to […].
After 1 hr incubation at room temperature, free IL-18BP levels are measured using a […]. In a 384 well OPTIplate, 5 μL of 5× Anti-IL-18BP acceptor beads are added to 7.5 μL of an IL-18/IL-18BP mix. After 30 min incubation at room temperature with shaking, 5 μL of biotinylated Anti-IL-18BP antibodies are added to each well. The plate is incubated further for 1 hr at room temperature. Under subdued light, 12.5 μL of 2× streptavidin (SA) donor beads are pipetted into each well, and the wells are incubated with shaking for an additional 30 min at room temperature. The AlphaLisa signal is then measured on an Enspire plate reader with 680 and 615 nm as excitation and emission wavelengths, respectively. The dissociation constant (KD) is calculated based on a variable slope, four parameter analysis using GraphPad PRISM software.
An IL-18 binding protein AiphaLISA experiment substantially as described in Example 4 was performed on IL-18 polypeptide which can be incorporated into immunocytokine compositions as provided herein to assess ability to bind to IL-181BP. It is expected that the IL-18 polypeptides provided below would behave analogously to C086 (SEQ ID NO: 30) when incorporated into an immunocytokine composition as those otherwise provided herein.
In general terms: Bead proximity is the source of the signal in Alpha formats.
Regarding B1, the Kd was > 2800 nM.

Consider B2, for which the Kd was > 1000 nM.

For the molecule B3, the Kd was > 1000 nM.

As for B4, the Kd is > 2800 nM.

In turn, B5 yielded a Kd of 2.25 nM.

As for B6, the Kd was > 2800 nM.

With B7, the Kd is > 1000 nM.

B8: the Kd is > 2800 nM.

B9 showed a Kd of 0.14 nM.

The molecule B10 registered a Kd of 5.46 nM.

Regarding B11, the Kd was 436 nM.

As for B12, the Kd was > 2800 nM.

Turning to B13, the Kd was > 2800 nM.

Molecule B14 displayed a Kd of 25.8 nM.

Turning to B15, the Kd is > 2800 nM.

In the case of B16, the Kd was > 2800 nM.

B17: the Kd was > 2800 nM.

Another assay deals with NK-92 cells. As to the kind of experiment: IFNγ induction cellular assay in NK-92 cells (Example 4, used in Example 22C). Format: cell-based, human. The settings on record: IFNg stimulation in NK92 cells. The procedure: The ability of immunocytokines and IL-18 polypeptides provided herein are assessed for ability to induce IFN[…] in a cellular assay according to the protocol below.
The NK cell line NK-92 derived from a patient with lymphoma (ATCC® CRL-2407™) is cultured in aMEM medium supplemented with 20% FCS, Glutamax, 25 µM B-mercaptoethanol, and 100 IU/mL of recombinant human IL-2.
On the day of experiment, cells are harvested and washed with aMEM medium without IL-2 and containing 1 ng/mL of recombinant human IL-12. After counting, cells are seeded at 100,000 cells/well in a 384 well titer plate and incubated at 37° C./5% CO2. Sixteen 4-fold serial dilutions of IL-18 analytes are prepared in aMEM medium, and 1 ng/mL of IL-12 were added to the NK-92 cells. Final IL-18 analyte concentrations range from 56 nM to 5×10^−5 pM.
After incubating the cells for 16-20 hr at 37° C./5% CO2, 5 μL of supernatant is carefully transferred to a 384 microwell OptiPlate. IFNγ levels are measured using a human IFNγ AlphaLISA Assay Kit. Briefly, 10 μL of 2.5× AlphaLISA Anti-IFNγ acceptor beads and biotinylated antibody anti-IFNγ mix are added to the 5 μL of NK-92 supernatants. The mixtures are incubated for 1 hr at room temperature with shaking. Under subdued light, 2.5 μL of 2× streptavidin (SA) donor beads are pipetted into each well, and the wells are incubated for 30 min at room temperature with shaking. AlphaLISA signals are then measured on an EnSpire™ plate reader using 680 nm and 615 nm as excitation and emission wavelengths, respectively. Half maximal effective concentrations (EC50) are calculated based on a variable slope and four parameter analysis using GraphPad PRISM software.
The experiments described in Example 4 for determination of IFNg stimulation in NK92 cells (and inhibition by IL-18 BP) were performed substantially as described on IL-18 polypeptides in order to assess their activities and their suitability for incorporation into immunocytokine compositions. It is expected that the IL-18 polypeptides provided below would behave analagously to C086 (SEQ ID NO: 30) when incorporated into an immunocytokine composition as those otherwise provided herein.
Consider B2, for which the EC50 was > 1000 nM.

For the molecule B3, it took 30 nM to reach a half-maximal effect (EC50).

Consider B7, for which the EC50 stood at 58.5 nM.
